From article PMC2396426 (Nucleic Acids Research, 2008)

Molecular target: T1, yeast general transcription factor TFIIB (yeast, UniProt P29055 1-345)
T1 sequence (looked up): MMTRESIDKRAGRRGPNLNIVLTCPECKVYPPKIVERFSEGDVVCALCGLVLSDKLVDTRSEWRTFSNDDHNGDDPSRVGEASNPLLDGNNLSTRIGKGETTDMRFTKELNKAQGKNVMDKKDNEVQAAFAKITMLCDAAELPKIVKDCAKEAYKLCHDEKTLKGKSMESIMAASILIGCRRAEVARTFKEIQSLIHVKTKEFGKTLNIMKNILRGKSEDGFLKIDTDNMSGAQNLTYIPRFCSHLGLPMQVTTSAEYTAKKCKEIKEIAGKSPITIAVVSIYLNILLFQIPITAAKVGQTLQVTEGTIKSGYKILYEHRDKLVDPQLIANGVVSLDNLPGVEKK
Test: native gel or EMSA

binding result: binds
B1: yeast TATA-binding protein (TBP) (natural protein, UniProt P13393 1-240, looked up)
chain: MADEERLKEFKEANKIVFDPNTRQVWENQNRDGTKPATTFQSEEDIKRAAPESEKDTSATSGIVPTLQNIVATVTLGCRLDLKTVALHARNAEYNPKRFAAVIMRIREPKTTALIFASGKMVVTGAKSEDDSKLASRKYARIIQKIGFAAKFTDFKIQNIVGSCDVKFPIRLEGLAFSHGTFSSYEPELFPGLIYRMVKPKIVLLIFVSGKIVLTGAKQREEIYQAFEAIYPVLSEFRKM
